Viral DNA excision (excised band intensity on gel), J-Lat8.4 and Jurkat E6 against U1 and viral excision data for 1 substance are collected here from patent publication US20250360083A1.

The target in this experiment is CXCR4 receptor on J-Lat8.4, Jurkat E6 and U1 cells (human) (UniProt P61073). As to the kind of experiment: cell-based or functional assay.

As to “cyclic peptide cyclo (D-Tyr-Orn-Arg-Nal-Gly-) (CycPep), conjugated to DSPE-PEG and displayed on CXCR4 targeted lipid nanoparticles (T-LNP)”, the viral DNA excision (excised band intensity on gel), J-Lat8.4 and Jurkat E6 against U1 was 4 fold; the viral excision was below 60%.
